Consider seven molecules from paper PMC4987164 (Comparative biochemistry and physiology. Part D, Genomics & …, 2016).

A word on the Kd: it is the concentration at which binding is half-saturated.

For assay [1], the target named is SRC-1 RID (Homo sapiens) (UniProt Q15788). Particulars: cited from earlier work.
The target is the same in assay [2]. The conditions noted are these: cited from earlier work. This is another data set of the same source.
Assay [3] has as its target ESR1 Ligand-binding domain tagged with glutathione-S-transferase (human). Kind of assay: AlphaScreen or HTRF.
In assay [4] the target is T1, human estrogen receptor alpha ligand binding domain (ESR1-LBD) (Homo sapiens, UniProt P03372).
T1 sequence (P03372 311-547 limits assumed): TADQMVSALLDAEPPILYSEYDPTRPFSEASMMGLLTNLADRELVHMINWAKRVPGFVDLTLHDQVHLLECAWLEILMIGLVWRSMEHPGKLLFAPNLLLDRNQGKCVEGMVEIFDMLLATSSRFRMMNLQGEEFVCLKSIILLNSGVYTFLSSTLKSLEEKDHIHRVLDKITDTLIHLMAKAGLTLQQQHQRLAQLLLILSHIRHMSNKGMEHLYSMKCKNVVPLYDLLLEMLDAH
In words: Fluorescence polarization competitive ligand binding assay. The conditions noted are these: relative binding affinity calculated from IC50, E2 set at 100%.

Assay [5] has as its target T2, ESR1 ligand-binding domain (GST-ER LBD) / SRC-3 peptides (Homo sapiens, UniProt P03372).
T2 sequence (P03372 311-547 limits assumed): T1 sequence (P03372 311-547 limits assumed)
In words: TR-FRET co-activator peptide recruitment assay, SRC-3 peptides. It counts as biochemical. The conditions noted are these: all SRC-3 peptides tested; listed as BPA. Background: TR-FRET usually uses a lanthanide donor and a delayed reading to cut background.

Assay [6] has as its target T3, ESR1 (Homo sapiens, UniProt P03372).
T3 sequence (P03372 311-547 limits assumed): T1 sequence (P03372 311-547 limits assumed)
In words: Direct. The conditions noted are these: read-out: binding affinity (Kd) for the ESR1–Fl-E1 complex; saturation binding curves (data not shown).

Entries after “also recorded” stand apart in the source; their conditions may differ. Where two headings read alike, the source gives them in different places.

ESR1, sequence (P03372 whole entry): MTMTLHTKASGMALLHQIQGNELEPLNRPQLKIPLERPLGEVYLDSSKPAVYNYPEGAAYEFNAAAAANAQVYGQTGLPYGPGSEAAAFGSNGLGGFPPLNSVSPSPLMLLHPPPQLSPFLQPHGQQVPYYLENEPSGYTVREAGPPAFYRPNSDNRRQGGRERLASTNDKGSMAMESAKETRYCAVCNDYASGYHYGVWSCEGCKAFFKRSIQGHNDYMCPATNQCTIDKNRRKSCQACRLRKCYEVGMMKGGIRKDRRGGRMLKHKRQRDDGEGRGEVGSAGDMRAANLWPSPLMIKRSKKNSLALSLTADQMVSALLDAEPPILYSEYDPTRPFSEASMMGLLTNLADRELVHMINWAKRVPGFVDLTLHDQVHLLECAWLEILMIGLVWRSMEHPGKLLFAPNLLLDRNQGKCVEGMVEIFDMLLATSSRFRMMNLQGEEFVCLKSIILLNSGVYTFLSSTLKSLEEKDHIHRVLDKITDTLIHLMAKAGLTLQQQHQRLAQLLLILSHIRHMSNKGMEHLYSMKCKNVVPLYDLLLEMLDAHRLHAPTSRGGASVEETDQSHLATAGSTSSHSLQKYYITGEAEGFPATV
SRC-1 RID (Homo sapiens), sequence (Q15788 570-780): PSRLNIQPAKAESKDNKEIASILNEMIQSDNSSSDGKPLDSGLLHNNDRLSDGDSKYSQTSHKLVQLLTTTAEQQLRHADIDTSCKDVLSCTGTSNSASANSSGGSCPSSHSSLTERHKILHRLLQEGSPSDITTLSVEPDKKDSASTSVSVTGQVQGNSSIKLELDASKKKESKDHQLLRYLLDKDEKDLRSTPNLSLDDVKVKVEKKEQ

Regarding ESR1 (from UniProt P03372), the Kd in assay [1] was 104 nM; in assay [2] it was 21 nM.

In assay [3], SRC-1(1) peptide yielded an EC50 of 17β-estradiol for recruitment of the peptide of 8.44 nM.

Take `CC(C)(c1ccc(O)cc1)c1ccc(O)cc1` [Bisphenol-A, bisphenol-A]: the RBA in assay [4] is recorded as 0.29%. Moreover, in assay [5], the “recruitment of SRC-3 peptides to ESR1 (in words)” value is reported as “failed to induce interaction of the receptor with SRC-3 peptides; also recorded: failed to recruit any of the SRC-3 peptides”.

For the molecule SRC-3(2) peptide, the EC50 of 17β-estradiol for recruitment of the peptide in assay [3] is 7.19 nM.

Turning to `CC12CCC3c4ccc(O)cc4CCC3C1CCC2=NNC(=S)Nc1ccc2c(c1)C(=O)OC21c2ccc(O)cc2Oc2cc(O)ccc21` (stereo not shown) [Fl-E1], the Kd in assay [6] is 2.3 nM.

In assay [3], SRC-3(3) peptide had an EC50 of 17β-estradiol for recruitment of the peptide of 2.74 nM.

In assay [3], SRC-1(2) peptide gave an EC50 of 17β-estradiol for recruitment of the peptide of 5.08 nM and an EC50 of bisphenol-A for recruitment of the peptide of 32.3 nM.
